Source: patent EP4814010A1 (Shanghai Huaota Biopharmaceutical Co., Ltd., dated 2026)

Legend:
[1] = molecular target: T1, Cynomolgus IL-11, No Tag (Sino Biological Inc., 90925-CNCE) (cynomolgus, UniProt P20808 22-199); experiment: SPR (Biacore 8K), cynomolgus IL-11 amine-coupled on CM5, single-cycle kinetics, 1:1 model
T1 construct: Bought protein; also called monkey IL-11
T1 sequence (looked up): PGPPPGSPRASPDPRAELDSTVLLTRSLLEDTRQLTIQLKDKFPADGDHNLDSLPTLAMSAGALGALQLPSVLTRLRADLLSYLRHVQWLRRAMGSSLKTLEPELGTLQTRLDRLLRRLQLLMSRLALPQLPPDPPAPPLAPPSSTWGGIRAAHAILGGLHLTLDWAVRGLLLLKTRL

[2] = molecular target: T2, Trypsin inhibitor type 1-S from Glycine max (Glycine max, UniProt P01070 25-205); experiment: SPR (Biacore 8K), trypsin inhibitor amine-coupled on CM5, antibody as analyte
T2 sequence (looked up): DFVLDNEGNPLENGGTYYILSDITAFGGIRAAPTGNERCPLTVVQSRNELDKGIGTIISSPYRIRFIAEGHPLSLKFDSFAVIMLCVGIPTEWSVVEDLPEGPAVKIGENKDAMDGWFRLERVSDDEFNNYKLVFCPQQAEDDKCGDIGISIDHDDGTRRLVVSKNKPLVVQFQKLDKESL

[3] = molecular target: T3, Recombinant Rat Interleukin-11(IL-11), hFc Tag (CusaBio, CSB-MP859561RAd9) (rat, UniProt Q99MF5 22-199); experiment: BLI (Octet RH96), biotinylated sample on SA sensor, rat IL-11 as analyte, 1:1 global fit
T3 construct: Bought fusion protein; also called Rat IL-11; not shown: hFc tag
T3 sequence (looked up): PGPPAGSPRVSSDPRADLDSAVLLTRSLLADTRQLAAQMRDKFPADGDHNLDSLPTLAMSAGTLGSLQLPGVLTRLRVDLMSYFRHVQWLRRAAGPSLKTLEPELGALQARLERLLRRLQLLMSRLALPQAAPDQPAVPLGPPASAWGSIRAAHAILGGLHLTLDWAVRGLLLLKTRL

[4] = molecular target: T4, Mouse IL-11, No Tag (Sino Biological, 50117-MNCE) (mouse, UniProt P47873 22-199); experiment: SPR (Biacore T200), antibody captured on Protein A chip, IL-11 as analyte, 1:1 model
T4 construct: Bought protein
T4 sequence (looked up): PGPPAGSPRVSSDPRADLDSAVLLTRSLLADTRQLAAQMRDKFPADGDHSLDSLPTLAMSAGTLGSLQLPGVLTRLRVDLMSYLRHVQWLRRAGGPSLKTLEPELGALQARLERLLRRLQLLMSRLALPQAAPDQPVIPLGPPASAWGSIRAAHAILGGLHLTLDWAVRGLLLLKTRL

[5] = molecular target: T5, Human IL-11, No Tag (Sino Biological, 12225-HNCE) (human, UniProt P20809 22-199); experiment: as above
T5 construct: Bought protein; also called IL-11 Protein, Human, Recombinant
T5 sequence (looked up): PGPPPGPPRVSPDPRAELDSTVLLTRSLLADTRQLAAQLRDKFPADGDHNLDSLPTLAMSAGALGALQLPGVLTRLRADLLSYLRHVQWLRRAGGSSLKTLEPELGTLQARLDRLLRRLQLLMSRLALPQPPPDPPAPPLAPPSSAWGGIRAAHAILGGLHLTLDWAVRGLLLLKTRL

Kd [1]: 4.56 nM
koff [1]: 0.00221 s⁻¹
kon [1]: 485000 M⁻¹ s⁻¹
binding result [2]: no binding
Kd [3]: 1.17 nM
koff [3]: 5.57e-05 s⁻¹
kon [3]: 47500 M⁻¹ s⁻¹
Kd [4]: 2.2 nM
koff [4]: 0.00107 s⁻¹
kon [4]: 487000 M⁻¹ s⁻¹
Kd [5]: 1.93 nM
koff [5]: 0.00133 s⁻¹
kon [5]: 689000 M⁻¹ s⁻¹
B1: anti-IL-11 monoclonal heavy chain antibody 700068 (antibody, V domains shown)
VH: QVQLVESGGGLVQPGGSLRLSCAASGSIASIYTMAWYRQAPGKQRELVALSTNRGATDYADFVKGRFTISRDNAENTMYLQMNSLKPEDTAVYYCNGVASSWSTGFVASWGQGTQVTVSS
notes: also called 700068 heavy chain antibody
